Assay: yeast display, Sf9 membrane polyspecificity reagent, FACS + sequencing; frameworks hold sequencing errors
How it was run: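 Genes from sorted yeast were amplified by colony PCR, read by MiSeq 2 × 250 sequencing and filtered on CDR length. These cells carried a synthetic nanobody library in Saccharomyces cerevisiae BJ5465 and were sorted by FACS into low and high (top ~1%) gates on anti-HA and streptavidin fluorescence. Polyreactivity is labelled according to the gate of origin.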

Row | Sequence | polyreactivity (PSR sort gate)
1 | QVQLVESGGGLVQAGGSLRLSCAASGRTFGSNAMGWYRQAPGKERELVAAITRRGGSTYYADSVKGRFTISRDNAMNTVYLQMNSLKPEDTAVYYCATDPVSTRGSDYWGQGTQVTVSS | low polyreactivity
2 | QVQLVESGGGLVQAGGSLRLSCAASGFIFRGYAMGWYRQAPGKERELVAAISRSGGSTYYADSVKGRFTISRDNAKNTVYLQMNSLKPEDTAVYFCAVALFETGHYYWGQGTQVTVSS | high polyreactivity
3 | QVQLVESGGGLVQAGGSLRLSCAASGFTFNYNAMGWYRQAPGKERELVAAISASGGTTYYADSVKGRFTISRDNAKNTVYLQMNSLKPEDTAVYYCAAPKLDDYDYWGQGTQVTVSS | low polyreactivity
4 | QVQLVESGGGLVQAGGSLRLICAASGFTIGPYAMGWSRQAPGKERELVAAITIRGGSTYADSVKGRFTISRDNAKNTVYFQMNSLKTEDTAVSYCATVRALEYNYWGQGTQVTVSS | low polyreactivity
5 | QVQLVESGGGLVQAGGSLRLSCAASGSTFRRNAMGWYRQAPGKERELVARISYRGGSTYYADSVKGRFTISRDNAKNTVYLQMNSLKPEDTAVYYCAARVYGVPEYDYWGQGTQVTVSS | low polyreactivity
6 | QVQLVESGGGLVQAGGSLRLSCDASGSTFPSYTMGWSRQAPGKERELVAVIRLSSGSTYYADSVKGRFTISRDNAKNTVYLQMNSLKPEDTAVYYCNTGRYHYFPNYWYDYWGQGTQVTVSS | low polyreactivity
7 | QVQLQESGGGLVQAGGSLRLSCAASGTIFCLWAMGWYCQAPGKERELVASISSGGTTYHADSVKGRFTISRDNAKNTVYLQMNSLKPEDTAVYYSAAFYVATAKLGYWGQGSQVTVSS | low polyreactivity
8 | QVQLVESGGGLVQAGGSLRLSCAASGNTFWGNAMGWYIQAPGKERELVAAITSGGNTNYADSVKGRFTISRDNAKNTVYLQMNSLKPEDTAVYYCNVDLKAWLPDGGSVDYWGQGTQVTVSS | low polyreactivity
9 | QVQLVESGGGLVQAGGSLRLSCAASGRTFYYNAMGWYRQAPGKERELVAAISWSGGRTYYADSVKGRFTISRDNAKNTVYLQMNSLKPEDTAVYYCAATGFYSSHYHLDYWGQGTQVTVSS | high polyreactivity
10 | QVQLVESGGGLVQAGGSLRLSCAASGLTFYYNAMGWYRQAPGKERELVAVIRGSGGSTYYADSVKGRFTISRDNAKNTVYLQMNSLKPEDTAVYYCAARVAASRRYYYWGQGTQVTVSS | high polyreactivity
11 | QVQLVESGGALVQAGGTRRLSCAASASTYPYAMGWYRQDPAKERELVAAITWSGGNTYFADSVKGRFTISRDNAKNSVYLQMNSMKPEDTAFYYCAALIGYRVFRYNYWGQGTQLTVSS | high polyreactivity
12 | QVQLVESGGGLVQAGGSLRLSCAASGRTFYYYAMGWYRQAPGKERELVASISSSGRTYYADSVKGRFTISRDNAKNTVYLQMNSLKPEDTAVYYCAKVWSSSYYRYGYWGQGTQVTVSS | high polyreactivity
13 | QVQLVESGGGLGQAGGSLRLSCAASGITYDGYAMGWYRQAPGKERELVAAITYSGGRTYYADSVKGRFTISRDNAKNTVYLQMNSLKPEDTAVYYCAVVSRRLYEYDYWGQGTQVTVSS | high polyreactivity
14 | QFQLVESGGGLVQAGGSLRLSCAASGRTFGFNAMGWYRQAPGKERELVAALSGSGGRTYYADSVQGRFTISRDNAKNTVYLQMNSLKPEDTAVYYCAAGARRGGSGDWGQGTQVTVSS | high polyreactivity
15 | QVQLVESGGGLVQAGGSLRLSCAASGSTFDSNVMGCYRQAPGKERELVAVINGSGSNTYYADSVKGRFTISRDNAKNTVYLQMNSLKPEDTAVYYCAARVYVSRSKRLNYWGQGTQVTVSS | high polyreactivity
16 | QVQLVESCGGLVQAGCSLRLSCAASGSIRYYPMGWYRQAPGKERELVAGITRNGGSTYYADSVKGRFTISRDNAKITVYLQMNSLKPEDTAVYYFAAGFTTRRGEYNYWGQGTQVTVSS | high polyreactivity
17 | QVQLVESGGGLVQAGGSLRLSCAASGSTFYGNAMGWYRQAPGKERELVAAIRWRGGRTYYADSVKGRFTISRDNAKNTVYLQMNSLKPEDTAVYYCNALPGVSHTQYDRVGYWGQGTQVTVSS | high polyreactivity
18 | QVQLVESGGGLVQAGGSLRLSCAASGSTFESNAMGWSRPAPGKEREFVAAITSGGSTDYADSVKGRFKISRDNAKNTVYLQMNSLKPEDTAVYYCAKGTFDLHYRKRYNYWGQGTQVTVSS | low polyreactivity
19 | QVQLVESGGGLVQAGGTLRLSCAASGSIFGNNLMGWYRQAPGKERELVAAISWSGGKNYADSVKGRFTISRDNAKNTVYLEMHCLIPDDSAVYYCAALSVWSYYTYYYWGQGTQVTVSS | high polyreactivity
20 | QDQLVVSGGGLVQAGGSLRLSCAAYGFIVRSYDMGWYIQAPGKEREMVAAITSDVNSYYADSVKGRFTISRDNAKNTVYLQMNSLKPEDTAVYYFNADAVVYRDYQDYDYWGQGTQVTVSS | low polyreactivity
21 | QVQLVESGGGLVQAGGSLRLSCAASGRILKWYAMGWYRQAPGKERELVAAISARGGSTFYADSVKGRFTISRDNAKNTVYLQMNSLKPEDTAVYYCNTYYRGGPYDVAYDYWGQGTEVTVSS | high polyreactivity
22 | QVQLVESGGGLFQAGGSLRLSCAASGSTFHYNNMGWYRQAPGKERELVAAISWLGDPTYYADSVKGRFTISRDNAKNTVYLQMNSLKPEDTSVYFCNAVRLSRYRPNPFGYGHWGQGTQVTVSS | high polyreactivity

Row | Sequence | polyreactivity (PSR sort gate)
23 | QVQLVETGGGLVQAGGSLRLSCAASGSIFVYYAMGWYRQAPGKERELVAAISSRGGRTYYADSVKGRFTISRDNAKHTVYLQMNSLIPEDTAVYYCAASPDYSRYWVYAPNRRLGYWGQGTQVTVSS | high polyreactivity
24 | QVQLVESGGGLVQAGGSLRLSCAASGSIFYNAMGWYRQAPGKERELVAAITSGGRTYYADSVKGRFTISRDNAKNTVYLQMNSLKPEDTAVDYCAADVRRVRVGKYDYWGQGTQVTVSS | high polyreactivity
25 | QVQLVESGGGLVQAGGSLRLSSAASGRIFRRNTMGWYRQAPGKERELVAAITYSGGSTYYADSVKGRFTISRDNAKNTVYLQMNSLKPEDTAVYYCAADTGFYYWYDYWGQGTQVTVSS | low polyreactivity
26 | QVQIVESGGGLVQAGGSLRISCAASGRTFYWNAMGWNREAPGKEMELVSAISDGGGSTYYADSVKGRFSISRDNAKNTVYLQMNSLKPEDTAVYYCNTPDNQDKPYPGYDYWGQGTQVTVSS | low polyreactivity
27 | QVQLVESGGGLVQAGGSLRLSCAASGSIFTQNAMGWYRQAPGKERELVAAITSTGGSTYYADSVKGRFTISRDNAKNTVYLQMNSLKPEDTAVYYCNADGFRRAALHDYWGQGTQVTVSS | high polyreactivity
28 | QVQLVESGGGLVQARGSLRLSCAASGITFSRNVMGWYRQAPGKERELVAAISRSGGRTYYADSVKGRFTISRDNAKNTVYLQMNSLKPEVTAVYYCNRDIGGTTVLDDYCGQGTQVTVSS | low polyreactivity
29 | QVQLVESGGGLVQAGCSHSLSCAASGSIFWNNAIGSFRQAPVKEREFVAGITGRGGSTYYADSVKGRFTISRDNAKNTVYLQMNSLKPEDTEVYYCATRYLVYRGKYDYWGQGTQVTVSS | high polyreactivity
30 | QVQLVESGGGLVQAGGSLRLICAASGLTFWVYTMGWYRQAPGKERELVARITSRGASTYYADSVKGRFTISRDNAKNTVYLQMNSLKPEDTAVYYCATDRYRIYPDYDYWGQGTQVTVSS | high polyreactivity
31 | QVQLVESGGVLVQAGGSLRLSCAASGSTSDCYDMGWYRQAPGKEWELVAAISTGDGITYYADSVKGRFTISRDNAKNTVYLHMNRLKPEDTAVYYCAAEVELSGGSDYWGQGTQVTVSS | low polyreactivity
32 | QVQLVESGGGLVQAGGSLRLSCAASGFTFSYYAMGWYRQAPGKERELVASISRSGNTYYADSVKGRFTISRDNAKNTVYLQMNSLKPEDTAVYYCAAKRKSYYSYNFDYWGQGTQVTVSS | high polyreactivity
33 | QVQLVESGGGLVQAGGSLRLSCAASGSIFDLYAMGWYRQAPGKERELVADISIADSTNYADSVKGRFTISRDNAKNTVYLQMNSLKPEDTGVYYCNADVWWYSYEYDYWGQGTQVTVSS | low polyreactivity
34 | QVQLVESGGGLVQAGGSLRLSCAASRFIFGAYTMGWYRQAPGKERELVAAISWSGDSTYYADSVKGRFTISRDNAKNTVYLQMNSLKPEDTAVYYCAAVWYWSGFDYWGQGTQVTVSS | high polyreactivity
35 | QVKLVESGGGLVQAGGSLRLSCAASGSIFTYYAMGWYRQAPGKERELVADIRWSGGSTYYADSVKGRFTISRDNAKNTVYLQMNSLKPEDTAVYYCNARYYSYWPIYNFDYWGQGTQVTVSS | low polyreactivity
36 | QVQLVESGGGLVQAGGSLRLSCAASGSTIRFNAMGWYRQAPRKERELVAAISWRGGTTYADSVKGRFTISRDNAKNTVFLQMTSLKPEDTAVYYCAAGLYAQGKRYGYWGHGTQVTVSS | high polyreactivity
37 | QVQLVESGGGLVQAGGSLRLSCAASGFIFGRYAMGWDREAPGKERELVAGIRSSGGSTYYADSVKGRFTISRDNAKNTVYLQMNSLKPEDTAVYYCAARTYGQSLDYWGQGTQVTVSS | high polyreactivity
38 | QVQLVESGGGLVQAGGRLRLSCAASGLIIKLYAMGWYRQAPGKERELVAAITDRGGSTYYADSVKGRFTISRDNAKNTVYLQMNSLKPEDTAVYYCAAPYAGWRDGGDYWGQGTQVTVSS | low polyreactivity
39 | QVQIVESGGGLVQAAGSLRLSCAASGRTFGYYAMGWYREAPGKEREMVAAITSCGRNTYYADTVKGRFTISRDNAKNNVYLQMNRLKPEDTAVYYCNTVYHAYWGKCVNYWGQGTQVTVSS | high polyreactivity
40 | QVQLVESGGGLVQAGGSLRLSCAASGSIFFYNAMAWYRQAPGKERELVAAINYNGGRTYYADSVKGRFTISRDNAKNTVYLQMNSMKQEDTAVYYCAARYGSGGDYWGQGTQVTVSS | low polyreactivity
41 | QVQLVESGGGLVQAGGSLRLSCAASGSIFIIYAMGRYRQAPGKERELVAAIRGRGGSTYYADSVKGRFTISRDKAKNTVYLEMNSLNPEDSAVYYCAASVDRGYNYWGEGTQVTVSS | high polyreactivity
42 | QVQLVESGGGLVQAGGSLRLSCAASGRIFSQYAMGWYRQAPGKERELVAAISRRTGSTYYADSVKGRFTISRDNAKNTVYLQMNSLKPEDTAVYYCNKARLGWSYRQDDYWGQGTQVTVSS | high polyreactivity
43 | QVQLVESGGGLVQAGGSLRLSCAASGRTFFRYARGGYRQAPGKERELVAAISVSGASTNYADSVKGRFTISRDNAKNTGYLQMNSQKPEDTAVYYCAARVADYDGVPLYRHGDYWGPGTQVTVSS | low polyreactivity
